Measured values reported in patent US20230256114A1, “NOVEL MAYTANSINOIDS AS ADC PAYLOADS AND THEIR USE FOR THE TREATMENT OF CANCER” (priority 2020, published 2023).

Columns and labels:
[1] = tested on: MDA-MB-468 breast cancer cells; assay: In vitro cytotoxicity assay (Cell Counting Kit-8, 72 hours); format: cell-based, human; details: FIG. 21
Description: Anti-Trop-2 ADCs were conjugated with different DM1 derivatives with similar DARs, and were tested ahead to ahead with anti-Trop-2-SMCC-DM1 and anti-Trop-2-vc-MMAE against BxPC-3 pancreatic cancer cells representing high Trop-2 expression, MDA-MB-468 breast cancer cells, N87 gastric cancer cells, and SK-BR-3 […] cancer cells representing moderate Trop-2 expression, Colo205 colon cancer cells representing low Trop-2 expression, and A549 lung cancer cells and MDA-MB-231 breast cancer cells with undetectable level of Trop-2. In vitro cytotoxicity assay was performed. Briefly, all cell lines were cultured in a suitable culture medium at 37° C. in a humidified incubator atmosphere of 5% CO2. Cells were plated in 96-well flat bottom plates. Cell seeding number ranged from 500 cells//100 ul/well to 6,000 cells/100 μl/well. Cells were allowed to adhere overnight at 37° C. in a humidified atmosphere of 5% CO2. ADCs were prepared from stock solution and diluted into appropriated working concentration 24 hours after cell seeding. […] Cell Counting Kit-8 solution (Dojindo China Co., Ltd, lot #PL701) was added to the wells for 1-4 hours at 37° C. and the absorbance at 450 nm was measured using a Microplate Reader (SpectraMax M5, Molecular Devices) and SoftMax Pro5.4.1 software. Dose-response curves were generated and IC50 was calculated using GraphPad Prism 7 three-parameter curve fitting.

[2] = Solubility of payloads and ADCs (comparison in words); details: inferred from Table 2
Description: The lipophilicity and aggregation rate of the ADCs of the present invention were characterized. The most commonly used measure of lipophilicity is LogP, which is the partition coefficient of a molecule between aqueous and lipophilic phases, usually octanol and water. […] In this experiment, the LogP of anti-Trop-2 BI-P203 and anti-Trop-2-SMCC-DM1 was calculated using ChemDraw software. Size exclusion chromatography (SEC) was used to characterize the ADC monomer and their aggregates.

[3] = Size exclusion chromatography (SEC) of ADC monomer and aggregates; format: physicochemical; details: for Aggregation rate (%): anti-Trop-2 ADC with the named payload, Cysteine conjugation
Description: Some embodiments of the invention relate to DM1s linked to antibodies via a non-cleavable linker. In this example, anti-Trop-2 antibody was reduced by adding antibody to TCEP (Tris (2-carboxyethyl) phosphine) dissolved in a pH-adjusted PBS EDTA buffer. The antibody/TCEP solution was incubated at 37° C. for 2-3 hrs. The reduced antibodies were buffer exchanged into conjugation reaction buffer. The BI-P203 payload dissolved in DMSO was added to a solution of reduced anti-Trop-2 monoclonal antibody at payload/antibody ratio of 7-30:1 in order to achieve different drug to antibody ratios (DARs). The payload/antibody solution was incubated for 1-2 hr at 20° C. while the reduced antibody was conjugated to BI-P203 payload via the maleimide group. After conjugation was completed, the reaction mixture was desalted and concentrated to yield anti-Trop-2-DM1 ADCs. The biochemical properties of the resulting ADCs were characterized using size-exclusion chromatography high pressure liquid chromatography (SEC-HPLC) to determine purity and aggregation content, and by using hydrophobic interaction chromatography HPLC (HIC-HPLC) to confirm drug loading (DAR). The conjugation procedure is illustrated in FIG. 12. The final ADC products are comprised of four or six or seven DM1-linker molecules. The cysteine conjugation method used in the conjugation process produces more homogenous ADCs compared to lysine conjugation method.

[4] = as above; format: physicochemical; details: anti-Trop-2 ADC with the named payload, Lysine conjugation, DAR 3.9

Structure (SMILES) | in vitro activity of the free payload compared with free SMCC-DM1 payload [1] | solubility of payload compared to SMCC-DM1 payload [2] | aggregation rate compared to SMCC-DM1 payload ([3]; ADCs of the payloads) | Aggregation rate (%) ([3]; DAR 3.5) | Aggregation rate (%) ([3]; DAR 6.2) | Aggregation rate (%) ([3]; DAR 7.0) | Aggregation rate (%) [4]
COc1cc2cc(c1Cl)N(C)C(=O)C[C@H](OC(=O)[C@H](C)N(C)C(=O)CCOCCn1cc(COCCOCCOCCOCCNC(=O)CCN3C(=O)C=CC3=O)nn1)[C@@]1(C)O[C@H]1[C@H](C)[C@@H]1C[C@@](O)(NC(=O)O1)C(OC)/C=C/C=C(\C)C2 (stereo partly shown) [BI-P203] | less activity than that of free SCMM-DM1 payload | increased solubility | decreased aggregation rate | 0.33% | 1.0% | 2.0% | –
COc1cc2cc(c1Cl)N(C)C(=O)C[C@H](OC(=O)[C@H](C)N(C)C(=O)CCSC1CC(=O)N(CC3CCC(C(=O)ON4C(=O)CCC4=O)CC3)C1=O)[C@]1(C)O[C@H]1[C@H](C)[C@@H]1C[C@@](O)(NC(=O)O1)[C@H](OC)/C=C/C=C(\C)C2 (stereo partly shown) [SMCC-DM1] | – | – | – | – | – | – | 3.6%
